Assay results taken from patent US20250034266A1 (ZAI LAB SHANGHAI, published 2025).
Substitutions are numbered along the chain they refer to. Names may count otherwise. Read-outs that look alike come from different tables or passages of the source.

What was measured:
[1] = target: T1, human CCR8 (human, UniProt P51685 1-355); assay: cell-based or functional assay
[2] = target: T1, human CCR8; assay: FACS, competition with AF647-human CCL1 on CHO-K1-human CCR8 cells
Description: (§1) Antibodies were prepared with 3-fold serial dilution ranging from 200 nM to 0.01 nM in FACS buffer. Then, cells were washed by FACS buffer for three times after incubation. […] FlowJo software was used for analysis. Data was plotted as the logarithm of antibody concentration versus mean fluorescence signals. IC₅₀ values were determined in GraphPad Prism 8 (GraphPad Software) using a log(agonist) vs. response-Variable slope (4 parameters) curve fit.

[3] = target: T1, human CCR8; assay: FACS, competition with AF647-human CCL1 on HEK293-human CCR8 cells
Description: as §1

[4] = target: T1, human CCR8; assay: cell-based or functional assay; remark: listed apart in the source
[5] = target: T1, human CCR8; assay: FACS on HEK293-human CCR8 cells
Description: (§2) A total of 5×10⁴ cells for each well were seeded in 96-well plates and washed with FACS buffer (DPBD containing 1.5% FBS) for once. Antibodies were prepared with 3-fold serial dilution ranging from 100 nM to 0.0017 nM in FACS buffer. Cells were incubated with 50 μL of diluted antibodies at 4° C. for 1 hour. […] After primary antibody incubation, cells were washed for 3 times by FACS buffer. Then, cells were stained by Alexa Flu647 labeled anti-human IgG secondary antibody (Jackson ImmunoResearch, #109606170) or Alexa Flu647 labeled anti-mouse IgG secondary antibody (Jackson ImmunoResearch, #115605072) at 1:600 dilution in FACS buffer for 0.5 hour at 4° C. After washed for 3 times, Flow cytometry was performed to measure the binding.

[6] = target: T2, cynomolgus CCR8 (cynomolgus, UniProt G7NYJ2 1-355); assay: FACS on HEK293-cynomolgus CCR8 cells
T2 construct: whole, on cells
Description: as §2

[7] = target: T1, human CCR8; assay: FACS, competition with AF647-human CCL1 on CHO-K1-human CCR8 cells; remark: listed apart in the source
[8] = target: T1, human CCR8; assay: FACS on HEK293-human CCR8 cells; remark: listed apart in the source
Description: (§3) Binding affinities of NG site removed antibodies were determined on human CCR8 and cynomolgus CCR8 overexpression cells. Briefly, CFSE labeled HEK293-human CCR8 cells or CFSE labeled HEK293-cynomolgus CCR8 cells were mixed with HEK293 cells. The mixed ratio was 1:1. A total of 5×10⁴ mixed cells for each well were seeded in 96-well plates and washed by FACS buffer (DPBS containing 1% FBS) once. Cells were incubated by serial diluted purified hybridoma antibodies for 1 hour at 4° C. Antibodies were prepared with 3-fold serial dilution ranging from 100 nM to 0.0017 nM or from 25.3165 nM to 0.0004 nM in FACS buffer. […] After primary antibody incubation, cells were washed by FACS buffer for three times. Then, cells were stained with secondary antibody (Alexa Flu647-conj gated rabbit anti-mouse IgG, Jackson ImmunoResearch, #315606046) at 1:600 dilution in FACS buffer, incubated for 0.5 hour at 4° C. […] FlowJo software was used for analysis. Data was plotted as the logarithm of antibody concentration versus mean fluorescence signals. EC₅₀ values were calculated in GraphPad Prism 8 (GraphPad Software) using a log (agonist) vs. response-Variable slope (4 parameters) curve fit.

[9] = target: T2, cynomolgus CCR8; assay: FACS on HEK293-cynomolgus CCR8 cells; remark: listed apart in the source
Description: as §3

[10] = target: T1, human CCR8; assay: FACS, competition with AF647-human CCL1 on CHO-K1-human CCR8 cells; remark: listed apart in the source
Description: Blocking curves were generated to rank the blocking activities of PTM sites removed antibodies. Briefly, a total of 5×10⁴ CHO-K1-human CCR8 cells for each well were seeded in 96-well plate. Cells were incubated by series diluted purified hybridoma antibodies and 4 nM AF647 labeled human CCL1 (Almac, #CAF-07) for 1 hour at 4° C. Antibodies were prepared with 3-fold serial dilution ranging from 100 nM to 0.0051 nM in FACS buffer. Then, cells were washed by FACS buffer for three times after incubation. […] FlowJo software was used for analysis. Data was plotted as the logarithm of antibody concentration versus mean fluorescence signals. IC₅₀ values were determined in GraphPad Prism 8 (GraphPad Software) using a log(agonist) vs. response-Variable slope (4 parameters) curve fit.

[11] = target: T1, human CCR8; assay: FACS on HEK293-human CCR8 cells; remark: listed apart in the source
[12] = target: T2, cynomolgus CCR8; assay: FACS on ExpiCHO-S-cynomolgus CCR8 cells
[13] = target: T1, human CCR8; assay: FACS, competition with AF647-human CCL1 on CHO-K1-human CCR8 cells; remark: listed apart in the source
[14] = target: T1, human CCR8; assay: FACS of purified scFv on CHO-K1-human CCR8 cells

T1 sequence (P51685 whole entry): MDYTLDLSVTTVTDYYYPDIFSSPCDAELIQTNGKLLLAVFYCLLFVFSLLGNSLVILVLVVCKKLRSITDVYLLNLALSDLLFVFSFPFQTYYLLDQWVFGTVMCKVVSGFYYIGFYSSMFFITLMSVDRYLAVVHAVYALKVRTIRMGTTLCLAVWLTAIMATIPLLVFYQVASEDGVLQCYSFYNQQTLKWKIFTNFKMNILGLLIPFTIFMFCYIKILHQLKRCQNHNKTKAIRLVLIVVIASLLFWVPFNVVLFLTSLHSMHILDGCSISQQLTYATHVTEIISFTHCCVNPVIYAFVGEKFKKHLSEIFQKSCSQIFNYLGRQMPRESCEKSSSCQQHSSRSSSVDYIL
T2 sequence (G7NYJ2 entry or part of it): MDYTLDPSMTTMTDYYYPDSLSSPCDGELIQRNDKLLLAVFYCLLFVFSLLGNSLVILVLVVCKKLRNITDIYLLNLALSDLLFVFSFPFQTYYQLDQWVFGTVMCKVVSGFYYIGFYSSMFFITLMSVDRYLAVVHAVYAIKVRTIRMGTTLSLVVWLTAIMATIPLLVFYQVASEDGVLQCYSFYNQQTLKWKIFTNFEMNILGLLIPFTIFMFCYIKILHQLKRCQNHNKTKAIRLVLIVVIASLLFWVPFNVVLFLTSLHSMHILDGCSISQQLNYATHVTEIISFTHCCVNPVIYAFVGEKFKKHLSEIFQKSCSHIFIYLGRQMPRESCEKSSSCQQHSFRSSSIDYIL

B1: 204A2G12 (antibody, V domains shown)
VH: DVQLQESGPGLVKPSQSLSLTCSVTGYSITSGYYWNWIRQFPGNKLEWMGYISYDGTNNYNPSLKNRISITRDTSKNQFFLKLTSVTTEDTATYYCARQVGLRRAWFAYWGQGTLVTVSA
VL: DIQMTQSSSFLSVSLGGRVTITCKASDHINYWLAWYQQKPGNAPRLLISGATSLETGVPSRFSGSGSGKDYTLTITSLQNEDVATYYCHQYWSTPTFGSGTKLEIK
notes: purified murine hybridoma antibody
IC50, inhibition of CCL1 induced β-Arrestin recruitment [1]: 1.7 nM | Max Inhibition (%), CCL1 induced β-Arrestin recruitment [1]: 30.9% | IC50 [2]: 2.73 nM | Max Inhibition (%) [2]: 95% | IC50 [3]: 1.64 nM | Max Inhibition (%) [3]: 87.6%

B2: Hu149-4 (antibody, human IgG1, V domains shown)
VH: EVQLVESGGGLVQPGGSLKLSCAASGFTFNTYAMNWVRQASGKGLEWVGRIRSKSNFYATYYAASVKGRFTISRDDSKNTAYLQMNSLKTEDTAVYYCTRGRDYGSSYAMDYWGQGTLVTVSS
VL: DIVMTQSPLSLPVTPGEPASISCRSSKSLLHSNANTYLYWFLQKPGQSPQLLIYRMSNLASGVPDRFSGSGSGTDFTLKISRVEAEDVGVYYCMQHLEYPLTFGGGTKVELK
notes: humanized, human IgG1; also called Hu149-4 HuIgG1
EC50, ADCC with human PBMC [4]: 0.002 nM | Max specific lysis (%), ADCC with human PBMC [4]: 8.76% | EC50 [5]: 0.0518 nM | Max MFI [5]: 7470 MFI | EC50 [6]: 0.081 nM | Max MFI [6]: 26500 MFI | IC50 [7]: 0.137 nM | Max Inhibition (%) [7]: 99.5%

B3: 149F2C10 (antibody, V domains shown)
VH: EVQLVESGGGLVQPKGSLKLSCAASGFTFNTYAMNWVRQAPGKGLEWVARIRSKSNFYATYYADSVKDRFTISRDDSQDMLYLQMNILKTEDTAIYYCVRGRDYGSSYAMDYWGQGTSVTVSS
VL: DIVMTQAAPSVPVTPGESVSISCRSSKSLLHSNGNTYLYWFLQRPGQSPQLLIYRMSNLASGVPDRFSGSGSGTAFTLRISRVEAEDVGVYYCMQHLEYPLTFGAGTKLELK
notes: as for B1
IC50, inhibition of CCL1 induced β-Arrestin recruitment [1]: 0.61 nM | Max Inhibition (%), CCL1 induced β-Arrestin recruitment [1]: 32% | EC50 [8]: 0.173 nM | Max MFI [8]: 1930 MFI | EC50 [9]: 0.145 nM | Max MFI [9]: 3440 MFI | IC50 [2]: 0.917 nM | Max Inhibition (%) [2]: 98% | IC50 [3]: 0.733 nM | Max Inhibition (%) [3]: 96.4% | IC50 [10]: 0.97 nM | Max Inhibition (%) [10]: 79.4%

B4: 164G10D6 (antibody, V domains shown)
VH: B3 VH
VL: B3 VL
notes: as for B1
IC50, inhibition of CCL1 induced β-Arrestin recruitment [1]: 0.46 nM | Max Inhibition (%), CCL1 induced β-Arrestin recruitment [1]: 42% | IC50 [2]: 0.602 nM | Max Inhibition (%) [2]: 97.9% | IC50 [3]: 0.599 nM | Max Inhibition (%) [3]: 96.6%

B5: 153D4G2 (antibody, V domains shown)
VH: B3 VH
VL: B3 VL
notes: as for B1
IC50, inhibition of CCL1 induced β-Arrestin recruitment [1]: 6.57 nM | Max Inhibition (%), CCL1 induced β-Arrestin recruitment [1]: 33.8% | IC50 [2]: 0.661 nM | Max Inhibition (%) [2]: 98.2% | IC50 [3]: 0.836 nM | Max Inhibition (%) [3]: 96.2%

B6: 160D1E3 (antibody, V domains shown)
VH: B3 VH with F57Y, I87N
VL: B3 VL
notes: as for B1
IC50, inhibition of CCL1 induced β-Arrestin recruitment [1]: 1.04 nM | Max Inhibition (%), CCL1 induced β-Arrestin recruitment [1]: 41.3% | IC50 [2]: 0.728 nM | Max Inhibition (%) [2]: 98% | IC50 [3]: 0.891 nM | Max Inhibition (%) [3]: 100%

B7: CM348 (antibody, V domains shown)
VH: QVQLVETGGGLVRPGNSLKLSCVTSGFSFSNYRMHWLRQPPGKRLEWIAVITVKSDNYGANYAESVKGRFTISRDDSKSSVYLQMNRLREEDTATYYCSSLGRVAYWGQGTLVTVSA
VL: DIVMTQSQKFMFTSVGDRVSVTCKASQNVDTNVVWYQQKPGQSPKALIYSASSRYSGVPDRFTGSGSGTDFTLTISNVQSEDLAEYFCQQHNSFPLTFGAGTKLELI
notes: CM348 is not defined in words; also called CM348 HuIgG1; parental antibody CM348
EC50, ADCC with human PBMC [4]: 0.41 nM | Max specific lysis (%), ADCC with human PBMC [4]: 13.1% | EC50 [11]: 0.091 nM | Max MFI [11]: 5050 MFI | EC50 [12]: 65.3 nM | Max MFI [12]: 238 MFI | IC50 [13]: 0.17 nM | Max Inhibition (%) [13]: 96.4%

B8: 149-9 scFv (WT) (scFv)
scFv: EVQLVESGGGLVQPGGSLKLSCAASGFTFNTYAMNWVRQASGKGLEWVGRIRSKSNFYATAYAASVKGRFTISRDDSKNTAYLQMNSLKTEDTAVYYCTRGRDYGSSYAMDYWGQGTLVTVSSGGGGSGGGGSGGGGSDIVMTQSPLSLPVTPGEPASISCRSSKSLLHSNANTYLYWFLQKPGQSPQLLIYRMSNLASGVPDRFSGSGSGTDFTLKISRVEAEDVGVYYCMQHLEYPLTFGGGTKVELK
notes: VH-VL format with (G4S)3 linker
GeoMean AF647 (RL1-H) of CHO-K1-human CCR8 / GeoMean AF647 (RL1-H) in H12(NC) [14]: 2.2

B9: VH-PH5-P3E3 (scFv)
scFv: B8 scFv with D103E, S107A
GeoMean AF647 (RL1-H) of CHO-K1-human CCR8 / GeoMean AF647 (RL1-H) in H12(NC) [14]: 3.6

B10: VL-PH5-P5D9 (scFv)
scFv: B8 scFv with E236S
GeoMean AF647 (RL1-H) of CHO-K1-human CCR8 / GeoMean AF647 (RL1-H) in H12(NC) [14]: 3.2

B11: VH-PH5-P2B6(LCDR3) (scFv)
scFv: B8 scFv with E236K
GeoMean AF647 (RL1-H) of CHO-K1-human CCR8 / GeoMean AF647 (RL1-H) in H12(NC) [14]: 4.6

B12: VH-PH5-P7B9 (scFv)
scFv: B8 scFv with D103E
GeoMean AF647 (RL1-H) of CHO-K1-human CCR8 / GeoMean AF647 (RL1-H) in H12(NC) [14]: 10.4

B13: VL-PH5-P3E4 (scFv)
scFv: B8 scFv with E236R
GeoMean AF647 (RL1-H) of CHO-K1-human CCR8 / GeoMean AF647 (RL1-H) in H12(NC) [14]: 2.9

B14: VH-PH5-P5F7 (scFv)
scFv: B8 scFv with D103E, S106R
GeoMean AF647 (RL1-H) of CHO-K1-human CCR8 / GeoMean AF647 (RL1-H) in H12(NC) [14]: 7.1

B15: VH-PH5-P9E9 (scFv)
scFv: B8 scFv with R102K, D103E
GeoMean AF647 (RL1-H) of CHO-K1-human CCR8 / GeoMean AF647 (RL1-H) in H12(NC) [14]: 10.8

B16: VH-PH7-P2H12 (scFv)
scFv: B8 scFv with S41P
notes: also called VH-PH7-P2H12(S41P)
GeoMean AF647 (RL1-H) of CHO-K1-human CCR8 / GeoMean AF647 (RL1-H) in H12(NC) [14]: 6
